According to the RNAGym collection of RNA variant scans (doi:10.1073/pnas.2313332121):
Fewer inactive variants are shown than the library holds.

B1: TPR 5TU (parent)
chain: GGAUCUUCUCGAUCUAACAAAAAAGACAAAUCUGCCACAAAGCUUGAGAGCAUCUUCGGAUGCAGAGGCGGCAGCCUUCGGUGGCGCGAUAGCGCCAACGUUCUCAACUAUGACACGCAAAACGCGUGCUCCGUUGAAUGGAGUUUAUCAUG

Variants of: B1
Experiment: polymerase ribozyme fitness, log enrichment relative to wild type (log ratio); higher = more active; in vitro selection for triplet polymerase activity
Outline: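 Mutant libraries of both subunits of a heterodimeric triplet polymerase ribozyme were PCR-built, transcribed, and selected once in triplicate, with frozen incubation at −7 °C and capture of gel-excised extended constructs on streptavidin beads before RT-PCR. Illumina sequencing of input and output libraries was filtered to genotypes with ≥10 input reads and ≥1 read per output. Fitness is the logarithm of genotype enrichment over wild-type enrichment, using inverse-variance-weighted replicate averages. The logarithm is base 2.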

Variant | polymerase ribozyme fitness (log ratio)
G48C A49C C63U G86A C149A | ≤ -4.2
C87A A138C | ≤ -4.2
C5A A16U A52G A106G | -3.09
A16G U134A | -3.15
U13G A24C C35A A49U C76G A91C | ≤ -4.2
A22C C27U A52C | -2.64
A16U A98U A122G U146G | -3.26
C95U C125U A142C | -3.48
G48A C76A G94C A106G U127A G141C | ≤ -4.2
C5A U9G A73G C87U A120U C123U A147G | -3.95
A137U U148G | ≤ -4.2
U15A G59U C79G C93A U134A | ≤ -4.2
A30G A91G | ≤ -4.2
A17U A29U A37C C75U G80U G92A C125U A142C | ≤ -4.2
U61C C69U G70U G86U A107C | ≤ -4.2
C8A A12U C35G G92U C103G | -3.99
C96G A142C | -1.82
A97G A150C | -2.96
G94C A142C | -1.37
U56C C108U | -4.01
C36A C54G C57A G86A U139G | ≤ -4.2

Variant | polymerase ribozyme fitness (log ratio)
A91G C95G | -3.67
U9A G141C | -3.23
U13C C14G C43G A91G A106U U109G A138G | -4.06
C38U G50U U56A G74U C75G C125U U139A | ≤ -4.2
A64G G80U C85U C93U G94U C103U | -4.18
A21U U104C | 0.212
C27A U55A G71A U77C C95U A113C C149G | ≤ -4.2
G124A G136A | -0.107
C14A A52G C85U A113C | -4.15
U55A G84U G152C | -3.48
U4G A21G A52G G141A | -2.63
A40G G81A G88C | ≤ -4.2
C96U A142C | -1.15
U61G C93G C99G C123G C125G | ≤ -4.2
A23C C32U A64G G81A C87G C95U C96A A97G A138C G141U | ≤ -4.2
C93A C95U | -3.37
A21U A22G A60G C132G U144C | -4.13
A29C U53A | ≤ -4.2
A12G C14G C18U U31A U56G U101A | -2.32
U45G C54A C87G A121U C123G | ≤ -4.2
A47G G50C U82G | ≤ -4.2

Variant | polymerase ribozyme fitness (log ratio)
G25C U31A C96G | -1.31
C27U G50C G141A | -4.12
C35A G83U | ≤ -4.2
G71C C95A | ≤ -4.2
G94A U139C | -3.82
A17C A30G C79G C87G C96G C105A | ≤ -4.2
U9A A41G A91U C95A C96G U102G G133A U135C | ≤ -4.2
A19G G83A A91C G94C C96G U134G | ≤ -4.2
A12G C57G G83U A115G | -2.09
G80C C131G | -4.04
C14U U145A | -1.55
A41C A137C | -3.61
C87A A107C U139C U151A | ≤ -4.2
C75A C76U G86U A106U G126A U148C C149A | ≤ -4.2
C32U A39G A40C C54A G94U A142U | ≤ -4.2
C75U C95G C96G | -3.09
G83U C95G G126U | -1.85
A19G U44C U56A C57U C85U C95G | ≤ -4.2
U31C A47U G88A C108A | ≤ -4.2
C63G A91G | -2.57
A19U U45A G83C | -3.67

Variant | polymerase ribozyme fitness (log ratio)
U55A C87U U146A | -1.36
G59A C99U A115G | -1.83
C76A C103U U134A | -4.15
A19G A91U | ≤ -4.2
A26G A30C A39C A47U C76U C93U A97G G133A G140U G141A | -4.02
G83A U102C C103G U145G | ≤ -4.2
A16U C51A A73G C85U A122C | ≤ -4.2
A73G C85U C96G C108G U127G G136C | ≤ -4.2
C14U G92A C103G | ≤ -4.2
U6G A73C C99U | ≤ -4.2
U33G G48A G59A G84A G88A C149U | ≤ -4.2
G58A U82C A147C C149G | ≤ -4.2
A64C C85A C118G A121C | ≤ -4.2
C85G C99G | -4.1
U55A A115U G133U | ≤ -4.2
U55G G94A A98U C118A | -1.56
G50C A91G | -4
U15G U55G G71C C85U A142U C149U | ≤ -4.2
G68C C103U | ≤ -4.2
A40C C57U A60G U61A | -2.29
A20G A24G A40C A49C C85A | ≤ -4.2
